From patent US20110166331A1 (Amgen, published 2011)
Substitutions are numbered along the chain they refer to.

B1: AMH21/AML21 (antibody, IgG2, V domains shown)
VH: EVQLVESGGGSVQPGGSLRLSCAASGFTFSSYSMNWVRQAPGKGLEWVSIISSRSSIIHYADSVKGRFTISRDNAKNSLYLQMNSLRDEDTAVYYCARPKVGGGMDVWGQGTTVTVSS
VL: DIQMTQSPSSLSASVGDRVTITCRASQGISNYLAWYQQKPGKFPELLIYAASTLQSGVPSRFSGSGSGTDFTLTISSLQPEDVATYYCQKYNRAPFTFGPGTKVDIK
notes: also called AM-21
B2: AMH13/AML13 (antibody, IgG2, V domains shown)
VH: QVQLVESGGGVVQPGRSLRLSCAASGFTFSSYGMQWVRQAPGKGLEWVAVIWYDGNKKYYADSVKGRFTISRDNSKNTLYLQMNSLRAEDTAVYYCARGRVRDYYYGMDVWGQGTTVTVSS
VL: DIVMTQTPLSLSVTPGQPASIACKSSQSLLHSDGKTYLYWYLQKPGQPPQLLIYEVSTRFSGVPDRFSGSGSGTDFTLKISRVEAEDVGVFYCMQSIQLPLTFGGGTKVEIK
notes: also called AM-13
B3: AMH22/AML22 (antibody, IgG2, V domains shown)
VH: QVQLVQSGAEVKKPGASVKVSCKASGYTFTRYGISWVRQAPGQGLEWMGWISAYSGNTNYAQKLQGRVTMTTDTSTSTAYMELRSLRSDDTAVYYCARRQLYFDYWGQGTLVTVSS
VL: EIVMTQSPATLSVSPGERVTLSCRASQSVSSNLAWFQQKPGQAPRPLIYDASTRAAGIPARFSGSGSGTDFTLTISSLQSEDFAVYYCQQYDNWPLTFGGGTKVEIK
notes: also called AM-22
B4: AMH17/AML17 (antibody, V domains shown)
VH: B3 VH with S17A, S25T, F29L, R31S, N59K, R99K, Y102V
VL: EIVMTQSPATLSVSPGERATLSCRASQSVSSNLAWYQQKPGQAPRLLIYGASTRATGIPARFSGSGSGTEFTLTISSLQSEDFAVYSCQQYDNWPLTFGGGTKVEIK
notes: also called AM-17
B5: AMH15/AML15 (antibody, IgG2, V domains shown)
VH: B2 VH
VL: B3 VL
notes: IgG2 XenoMouse; also called AM-15
B6: AMH14/AML14 (antibody, IgG2, V domains shown)
VH: B3 VH with A53T
VL: B3 VL with V19A, A56T, I58V
notes: Fully human mAb from IgG2 XenoMouse mice; also called AM-14
B7: AMH16/AML16 (antibody, IgG2, V domains shown)
VH: B3 VH with R31S, S55N, N59K, A79V, R99K, Y102V
VL: EIVMTQSPATLSVSPGERATLSCRASQSISTSLAWYQQKPGQAPRLLIYGTSTRATGIPARFSGSGSGTEFTLTISSLQSEDFAVYFCQQYDIWPLTFGGGTKVEIK
notes: also called AM-16
B8: AMH12/AML12 (antibody, IgG2, V domains shown)
VH: B3 VH with F29L, R31S, A53T, S55K, R99K, Y102V
VL: B7 VL with T31S, T51A, D82N, F87Y, I93N
notes: also called AM-12
B9: AMH11/AML11 (antibody, IgG2, V domains shown)
VH: QVQLVESGGGVVQPGRSLRLSCATSGITFSSYGMHWVRQAPGKGLEWVAVIWYDGSNKYYADSVKGRFTISRDNSKNTLYLQMNSLRAEDTAVYYCARDTKDYWGQGTLVTVSS
VL: EIVMTQSPATLSVSPGERATLSCRASQSVSSNLAWYQQKPGQAPRLLIYGASTRAAGIPARFSGGGSGTAFTLTISNLQSEDFAVYYCQHYINWPKWTFGQGTKVDIK
notes: also called AM-11
B10: AMH18/AML18 (antibody, IgG2, V domains shown)
VH: QVQLVQSGAEVKKPGASVKVSCKASGYSFTDYYMHWVRQAPGQGLEWMGWMHPNSGGTDLAQRFQGRVTMTRDTSISTAYMELSRLRSDDTAVYYCARGGYCSTLSCSFYWYFDLWGRGTLVTVSS
VL: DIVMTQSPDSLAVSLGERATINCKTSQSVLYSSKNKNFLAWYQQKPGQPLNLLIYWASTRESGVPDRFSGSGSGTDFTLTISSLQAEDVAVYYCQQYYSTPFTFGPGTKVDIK
notes: also called AM-18
B11: AMH5/AML5 (antibody, IgG2, V domains shown)
VH: QVQLQESGPGLVKPSETLPLTCTVSGGSIRSYYWSWIRQPAGKGLEWIGRIYRSGNTIYNPSLKSRVTMSIDTSKNQFSLTLSSVTAADTAVYYCARENYSESSGLYYYYGMDVWGQGTTVTVSS
VL: DIQMTQSPSSLSASVGDRVTITCRASQGIRNDLGWYQQKPGKAPKRLIYAASSFQSGVPSRFSGSGSGTGFTLTISSLQPEDFATYYCLQHNSYPPTFGQGTKVEIK
notes: IgG2 XenoMouse; also called AM-5
B12: AMH1/AML1 (antibody, V domains shown)
VH: QVQLQESGPGLVKPSETLSLTCTVSGGSISNYYWNWIRQSPGKGLEWIGDIYYSGSTNYNPSLKSRVTISVDTSKNQFSLKLSSVTTADTAVYYCARDGELANYYGSGSYQFYYYYGMDVWGQGTTVTVSS
VL: B11 VL with Q3L, F54L, G70E, Y94N, P96F, Q100P, E105D
notes: also called AM-1

Columns and labels:
[1] = molecular target: T1, cynomolgus IL-17RA on the cell surface (cynomolgus); assay: FACS competition, non-clonal hybridoma supernatant vs biotin-huIL-17A (500 ng/ml) on cyno IL-17RA+ CHO cells; lower = more inhibition
T1 construct: whole, on cells; also called CHO-cynoIL-17RA; cyno IL-17RA+ CHO cells
Description: The anti-IL-17RA antibodies were characterized. Non-clonal hybridoma supernatants were prepared in volumes of 1-2 mls (the Ig concentrations were not determined for these supernatants).

[2] = molecular target: T1, cynomolgus IL-17RA on the cell surface; assay: FACS competition, non-clonal hybridoma supernatant vs biotin-huIL-17A (500 ng/ml) on cynomolgus IL-17RA+ CHO cells; lower = more inhibition
Description: Non-clonal hybridoma supernatants were prepared in volumes of 1-2 mls (the Ig concentrations were not determined for these supernatants). […] Anti-IL-17RA non-clonal hybridomas were selected for sub-cloning based on their performance in the CHO-IL-17RA FACS assay and HFF bioassay.

[3] = molecular target: T1, cynomolgus IL-17RA on the cell surface; assay: FACS competition, non-clonal hybridoma supernatant vs biotin-huIL-17A (500 ng/ml) on cyno IL-17RA+ cells; lower = more inhibition
[4] = molecular target: T1, cynomolgus IL-17RA on the cell surface; assay: cell-based or functional assay
D152R IL-17RA mutant = molecular target: T2, D152R IL-17RA mutant (human, UniProt Q96F46 33-320); assay: Bio-Plex titration on His-captured D152R IL-17RA mutant; signal as percent of maximum wild-type MFI
T2 construct: Arginine scan mutant of huIL-17RA-FLAG-polyHis; also called huIL-17RA-FLAG-polyHis D152R
T2 sequence (Q96F46 other isoform, or with tags, fused parts or gaps D152R D152R limits assumed): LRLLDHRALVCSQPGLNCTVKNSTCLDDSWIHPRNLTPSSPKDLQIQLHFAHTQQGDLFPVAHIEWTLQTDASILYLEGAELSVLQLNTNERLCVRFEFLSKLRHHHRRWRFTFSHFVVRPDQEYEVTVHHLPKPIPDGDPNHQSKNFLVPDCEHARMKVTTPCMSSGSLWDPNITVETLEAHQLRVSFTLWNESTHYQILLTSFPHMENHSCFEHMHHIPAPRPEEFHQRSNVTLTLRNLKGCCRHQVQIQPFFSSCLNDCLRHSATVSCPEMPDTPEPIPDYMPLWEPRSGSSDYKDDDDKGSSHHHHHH
Description: Twelve bead codes of pentaHis-coated beads (Qiagen, Valencia, Calif.; see www1.qiagen.com) were used to capture histidine-tagged protein.
To prepare the beads, 100 ul of wild-type IL-17RA and IL-17RA arginine mutant supernatants from transient expression culture were bound to penta-His-coated beads overnight at 4° C. or 2 hours at room temperature with vigorous shaking. The beads were washed as per the manufacturer's protocol and the 12 bead set was pooled and aliquoted into 2 or 3 columns of a 96-well filter plate (Millipore, Bellerica, Mass., product #MSBVN1250) for duplicate or triplicate assay points, respectively. 100 ul anti-IL-17RA antibodies in 4-fold dilutions were added to the wells, incubated for 1 hour at room temperature, and washed. […] Beads were resuspended in 1% BSA, shaken for 3 minutes, and read on the Bio-Plex workstation. Antibody binding to IL-17RA arginine mutant protein was compared to antibody binding to the human IL-17RA wild-type from the same pool. A titration of antibody over approximately a 5 log scale was performed. Median Fluorescence Intensity (MFI) of IL-17RA arginine mutant proteins was graphed as a percent of maximum wild-type human IL-17RA signal.

| Binder | MFI [2] | MFI [3] | further results |
| --- | --- | --- | --- |
| B1 | – | – | MFI [1]: 6 |
| B2 | 6 | – | – |
| B3 | – | 18 | – |
| B4 | 8 | – | – |
| B5 | – | – | MFI [1]: 6 |
| B6 | – | – | MFI [1]: 10; IC50, cynomolgous IL-17A-induced IL-6 production from JTC-12 cells [4]: ~1200 pM |
| B7 | 6 | – | – |
| B8 | 6 | – | – |
| B9 | – | 9 | – |
| B10 | – | – | EC50 (read off the curve) (D152R IL-17RA mutant): ~80 pM |
| B11 | – | 9 | – |
| B12 | – | 11 | – |
